Publication PMC6826516

What was measured:
[1] = target: T1, LgBiT-TEAD1-Myc (TEAD1 aa 194-411), mutant, P28347-1; experiment: NanoBiT assay (split-luciferase biosensor) in lysates of transfected HEK293T cells; settings: chain shown with the change; 48 h after transfection; equal amounts of each biosensor plasmid; parent: est. 1300; read off a plot
T1 chain: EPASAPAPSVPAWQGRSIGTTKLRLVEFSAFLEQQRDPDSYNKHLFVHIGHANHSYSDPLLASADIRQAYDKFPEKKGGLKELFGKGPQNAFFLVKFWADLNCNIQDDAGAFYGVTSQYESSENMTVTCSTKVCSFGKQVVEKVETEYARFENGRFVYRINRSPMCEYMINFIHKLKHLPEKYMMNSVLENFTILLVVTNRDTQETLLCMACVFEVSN

[2] = target: T2, LgBiT-TEAD-His fusion protein (TEAD1 aa 194-411), mutant, P28347-1; experiment: NanoBiT assay (split-luciferase biosensor) with purified His-tagged fusion proteins in vitro; settings: chain shown with the change; 100 ng of each construct; mixed and incubated for 5 min before substrate; parent: est. 59; read off a plot
T2 chain: T1 chain

B1: m5; m2 TAZ:W43A; TAZ:K46A; TAZ:L48A; TAZ:S51A; TAZ:F52A; TAZ:F53A; TEAD1:E255A; TEAD1:V257A; TEAD1:I262A (protein)
chain: PGQQVIHVTQDLDTDLEALFNSVMNPKPSSARKAIAPEAAAKEPDSGSHSRQSSTDSSGGHPGPRLAGGAQHVRSHSSPASLQLGTGAGAAGSPAQQHAHLRQQSYD
B1 was tested, and the response (fold over LgBiT-TEAD1 alone) [1] was 19.

B2: m17; m14 TAZ:W43A; TAZ:K46A; TAZ:L48A; TAZ:S51A; TAZ:F52A; TAZ:F53A; TEAD1:E255A; TEAD1:V257A; TEAD1:I262A (protein)
chain: B1 chain
In the case of B2, the response (fold over LgBiT-TEAD1 alone) [2] is reported as 12.
